Legend:
Assay in all cases: cell_activity
[1] = test system: C1 TALEN 101371 (synthetic (Xanthomonas TALE)); conditions: paired with 101370; site given 3'-5', reversed here
[2] = test system: TALEN 101156 (synthetic (Xanthomonas TALE)); conditions: paired with 101230
[3] = test system: TALEN 101167 (synthetic (Xanthomonas TALE)); conditions: paired with 101239; 5.3% with 101166
[4] = test system: TALEN 101238 (HD half repeat) (synthetic (Xanthomonas TALE)); conditions: paired with 101236; 8.1% with 101235
[5] = test system: C1 TALEN 101378 (synthetic (Xanthomonas TALE)); conditions: paired with 101379
[6] = test system: C1 TALEN 101370 (synthetic (Xanthomonas TALE)); conditions: paired with 101371
[7] = test system: RPD1 TALEN 101388 (synthetic (Xanthomonas TALE)); conditions: paired with 101391; Neuro 2A
[8] = test system: TALEN 101237 (NK half repeat) (synthetic (Xanthomonas TALE)); conditions: paired with 101236
[9] = test system: RPD1 TALEN 101391 (synthetic (Xanthomonas TALE)); conditions: paired with 101390; site given 3'-5', reversed here
[10] = test system: TALEN 101236 (HD half repeat) (synthetic (Xanthomonas TALE)); conditions: paired with 101238; 2.5% with 101237
[11] = test system: TALEN 101235 (HD half repeat) (synthetic (Xanthomonas TALE)); conditions: paired with 101238
[12] = test system: TALEN 101240 (HD half repeat) (synthetic (Xanthomonas TALE)); conditions: paired with 101239; 10.7% with 101166
[13] = test system: RPD1 TALEN 101390 (synthetic (Xanthomonas TALE)); conditions: paired with 101391; printed site lacks one A relative to the locus
[14] = test system: TALEN 101230 (HD half repeat) (synthetic (Xanthomonas TALE)); conditions: paired with 101156
[15] = test system: TALEN 101239 (HD half repeat) (synthetic (Xanthomonas TALE)); conditions: paired with 101167; 11.2% with 101240
[16] = test system: RPD1 TALEN 101389 (synthetic (Xanthomonas TALE)); conditions: paired with 101393; Neuro 2A
[17] = test system: TALEN 101166 (synthetic (Xanthomonas TALE)); conditions: paired with 101240; 5.3% with 101167
[18] = test system: C1 TALEN 101380 (synthetic (Xanthomonas TALE)); conditions: paired with 101381
[19] = test system: C1 TALEN 101381 (synthetic (Xanthomonas TALE)); conditions: paired with 101380; site given 3'-5', reversed here
[20] = test system: RPD1 TALEN 101393 (synthetic (Xanthomonas TALE)); conditions: paired with 101389; site given 3'-5', reversed here

Sequence: TCGTCCACGCCCCTCTCT (double strand) [101371 site]
- activity (relative DLSSA units) [1]: 5

Sequence: TACCGCTGTGCTCCT (double strand) [101156 site]
- activity [2]: 4.9 % NHEJ

Sequence: CGTTGCCCCCGCCCT (double strand) [101167 site]
- activity [3]: 13.1 % NHEJ

Sequence: CGGGGATGATCTAC (double strand) [101238 site]
- activity [4]: 9.2 % NHEJ

Sequence: TGAACTACCTCCGGCCC (double strand) [101378 site]
- activity (relative DLSSA units) [5]: 7.1

Sequence: TGGGGAGGAGGGCGTGCT (double strand) [101370 site]
- activity (relative DLSSA units) [6]: 5

Sequence: TTATTTGAAGAAACT (double strand) [101388 site]
- activity (relative DLSSA units) [7]: 7.6

Sequence: CGGGGATGATCTACGG (double strand) [101237 site]
- activity [8]: 2.5 % NHEJ

Sequence: TGGGAGTGTTGCAT (double strand) [101391 site]
- activity (relative DLSSA units) [9]: 9.7

Sequence: ACGCCGTGGAAAGGCC (double strand) [101236 site]
- activity [10]: 9.2 % NHEJ

Sequence: ACGCCGTGGAAAGGC (double strand) [101235 site]
- activity [11]: 8.1 % NHEJ

Sequence: GAATCGTTGCCCCCGC (double strand) [101240 site]
- activity [12]: 11.2 % NHEJ

Sequence: TTTGAAGAACTATATT (double strand) [101390 site]
- activity (relative DLSSA units) [13]: 9.7

Sequence: GGCACTCCGCACCCC (double strand) [101230 site]
- activity [14]: 4.9 % NHEJ

Sequence: ATGAGCGGCCCCGCC (double strand) [101239 site]
- activity [15]: 13.1 % NHEJ

Sequence: TTATTTGAAGAAACTAT (double strand) [101389 site]
- activity (relative DLSSA units) [16]: 9.9

Sequence: GAGCGGCCCCGCCCGT (double strand) [101166 site]
- activity [17]: 10.7 % NHEJ

Sequence: TCCTACGACGAGGAGGAT (double strand) [101380 site]
- activity (relative DLSSA units) [18]: 10.3

Sequence: TTGCCGAGGAGCCTGT (double strand) [101381 site]
- activity (relative DLSSA units) [19]: 10.3

Sequence: TGAACTAGTGGGAGTGTT (double strand) [101393 site]
- activity (relative DLSSA units) [20]: 9.9
